The data set has as its system T1, NsrX (Alr1976) (Anabaena sp. strain PCC 7120), ORF:44a8eb4f.
T1 sequence: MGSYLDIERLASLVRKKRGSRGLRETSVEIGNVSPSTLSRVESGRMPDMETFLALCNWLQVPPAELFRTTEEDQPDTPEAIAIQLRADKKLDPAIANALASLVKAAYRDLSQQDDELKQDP
Nature of the data set: EMSA. The note with it: 10 mM Bis-Tris-HCl pH 7.5, 40 mM KCl, 0.1 mg/mL BSA, 5% glycerol, 50 ng DNA, 50-100 ng ifpkn22 competitor, 30 min room temperature; NsrX +100 uM MnCl2 (also in …).

Turning to “GGCGTGTGGCTCTTGTTCTAGTAGTACAGCCACCTTAAAGATAGCGATTGAATCCAGATTACGCGATCGCATCAACCCCAGCCTAGTAGTAGAAGCAGTTTAGTTAACAGTTAACAGTAAACCGTTAACTAACACCCAAAAGAACTTTCACAACTACATAACGAACCCATCATGAACACTAATTCTACTGGTTTTTCTGTGGAGCGATCGCCCCCTCTTCGGCGACGTTCTACAAACCCCTCACAGCCATAGCTCAACAGGCGTGAGATCCAAACACAAAGACCGACCAACTAACCAACC (double strand) [PnifHDK]”, the binding entry is on record as “binds”.

Consider “CATCTTGGAAACCAAGTTGCACAAACATCAGTAAGACAATAAAAGCAATGCCAGCTACAGCTATAAGAAAACGAATTTTCTGTTGGACTAGCTGTAGCCATGCTAAAGGAATTTTAAAATTCATATTGATTTTGTCAGTTGACAGTTGATAGTTGATAGTTGTCAGTTGACTAATGACAATTAAATTTGAATCGCTACATCAACTTGTAAGTTGGTCAAACGTCCTACCCGTTCGCTATCTGCG (double strand) [PhgdC]”, for which the binding entry is recorded as “binds”.

Source of the values: paper PMC12584617.
